Measured values reported in article doi:10.1101/2021.10.24.465637.

Experiments:
[1] = target: SGHRT-FLAG (human SGHRT, C-terminal FLAG) (human); test: SDS-PAGE and Western blot
[2] = target: SGHRT-HA (human SGHRT, C-terminal HA) (human); test: SDS-PAGE and Western blot

For “SGHRT-FLAG (human SGHRT, C-terminal FLAG) (peptide)”, the stoichiometry N [1] was 2.
Work on “SGHRT-HA (human SGHRT, C-terminal HA) (peptide)” yielded a stoichiometry N [2] of 2.
